T1: APBA3_1, O96018
T1 sequence (O96018 389-490, limits assumed, looked up): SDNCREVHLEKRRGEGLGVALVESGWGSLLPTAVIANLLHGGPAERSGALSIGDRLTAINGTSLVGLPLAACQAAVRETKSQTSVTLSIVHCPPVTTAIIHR

T2: DFNB31_1, Q9P202
T2 sequence (Q9P202 135-233, limits assumed, looked up): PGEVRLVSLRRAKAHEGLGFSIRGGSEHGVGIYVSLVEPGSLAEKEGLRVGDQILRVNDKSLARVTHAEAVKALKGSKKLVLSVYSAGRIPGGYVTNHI

T3: DFNB31_3, Q9P202
T3 sequence (Q9P202 811-907, limits assumed, looked up): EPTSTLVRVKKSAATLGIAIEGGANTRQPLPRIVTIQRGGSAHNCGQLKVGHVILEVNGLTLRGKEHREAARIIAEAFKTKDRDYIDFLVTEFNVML

T4: DLG3_3, Q92796
T4 sequence (Q92796 374-475, limits assumed, looked up): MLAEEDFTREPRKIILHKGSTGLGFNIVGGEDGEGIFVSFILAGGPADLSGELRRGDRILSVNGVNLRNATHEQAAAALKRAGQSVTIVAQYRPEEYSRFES

T5: LNX2_2, Q8N448
T5 sequence (Q8N448 334-432, limits assumed, looked up): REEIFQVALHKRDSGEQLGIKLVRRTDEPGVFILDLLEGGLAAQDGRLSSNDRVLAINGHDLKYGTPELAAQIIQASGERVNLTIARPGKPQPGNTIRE

T6: MPDZ_12, O75970
T6 sequence (O75970 1857-1958, limits assumed, looked up): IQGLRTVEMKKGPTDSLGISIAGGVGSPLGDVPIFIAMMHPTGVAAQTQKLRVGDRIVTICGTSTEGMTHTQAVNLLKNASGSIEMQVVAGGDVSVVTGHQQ

T7: MPP2, Q14168
T7 sequence (Q14168 180-250, limits assumed, looked up): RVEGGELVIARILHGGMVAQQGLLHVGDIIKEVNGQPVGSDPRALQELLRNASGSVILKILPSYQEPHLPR

T8: MPP6, Q9NZW5
T8 sequence (Q9NZW5 125-219, limits assumed, looked up): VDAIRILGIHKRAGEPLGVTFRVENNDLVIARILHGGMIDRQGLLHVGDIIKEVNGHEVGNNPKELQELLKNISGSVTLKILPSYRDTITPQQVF

T9: PDZD7_3, Q9H5P4
T9 sequence (Q9H5P4 857-944, limits assumed, looked up): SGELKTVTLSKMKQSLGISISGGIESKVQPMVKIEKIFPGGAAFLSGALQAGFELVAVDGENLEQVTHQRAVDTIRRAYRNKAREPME

T10: SHANK1, Q9Y566
T10 sequence (Q9Y566 658-767, limits assumed, looked up): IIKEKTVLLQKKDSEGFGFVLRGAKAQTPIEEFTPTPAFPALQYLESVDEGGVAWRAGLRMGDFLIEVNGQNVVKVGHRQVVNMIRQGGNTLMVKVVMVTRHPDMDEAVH


What was measured:
Assay in all cases: holdup assay
Set-up in all cases: key: below the threshold = too weak to quantify, mostly under pKd 3.1 to 4
Settings in all cases: plain residues with an end cap or a label only (N-terminal biotin on a linker: ado-ado)
APBA3_1, O96018 = target: T1, APBA3_1, O96018
CASK, O14936 = target: CASK, O14936
Sequence of CASK, O14936 (O14936 487-570): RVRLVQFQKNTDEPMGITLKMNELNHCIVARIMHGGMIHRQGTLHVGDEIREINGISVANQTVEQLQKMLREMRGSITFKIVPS

DFNB31_1, Q9P202 = target: T2, DFNB31_1, Q9P202
DFNB31_3, Q9P202 = target: T3, DFNB31_3, Q9P202
DLG3_3, Q92796 = target: T4, DLG3_3, Q92796
DLG4_1, P78352 = target: DLG4_1, P78352
Sequence of DLG4_1, P78352 (P78352 62-152): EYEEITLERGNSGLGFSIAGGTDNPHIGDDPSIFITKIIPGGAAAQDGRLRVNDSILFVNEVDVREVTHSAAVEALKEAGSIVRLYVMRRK

DLG4_2, P78352 = target: DLG4_2, P78352
Sequence of DLG4_2, P78352 (P78352 155-259): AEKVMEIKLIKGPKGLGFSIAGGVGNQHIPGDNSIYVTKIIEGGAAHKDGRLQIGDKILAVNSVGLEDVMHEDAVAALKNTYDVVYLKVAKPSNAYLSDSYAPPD

FRMPD3, Q5JV73 = target: FRMPD3, Q5JV73
Sequence of FRMPD3, Q5JV73 (Q5JV73 12-100): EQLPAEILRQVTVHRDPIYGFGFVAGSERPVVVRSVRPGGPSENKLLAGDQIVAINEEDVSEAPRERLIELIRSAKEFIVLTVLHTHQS

GRIP2_3, Q9C0E4 = target: GRIP2_3, Q9C0E4
Sequence of GRIP2_3, Q9C0E4 (Q9C0E4 238-339): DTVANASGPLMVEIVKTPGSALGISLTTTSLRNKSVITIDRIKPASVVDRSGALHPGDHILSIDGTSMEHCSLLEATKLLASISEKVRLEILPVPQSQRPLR

GRIP2_4, Q9C0E4 = target: GRIP2_4, Q9C0E4
Sequence of GRIP2_4, Q9C0E4 (Q9C0E4 446-548): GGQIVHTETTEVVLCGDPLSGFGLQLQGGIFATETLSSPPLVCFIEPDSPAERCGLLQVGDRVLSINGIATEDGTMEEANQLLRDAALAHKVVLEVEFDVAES

GRIP2_5, Q9C0E4 = target: GRIP2_5, Q9C0E4
Sequence of GRIP2_5, Q9C0E4 (Q9C0E4 544-642): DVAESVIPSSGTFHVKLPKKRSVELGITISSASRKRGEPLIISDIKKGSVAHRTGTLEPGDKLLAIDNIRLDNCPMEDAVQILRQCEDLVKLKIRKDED

GRIP2_6, Q9C0E4 = target: GRIP2_6, Q9C0E4
Sequence of GRIP2_6, Q9C0E4 (Q9C0E4 648-740): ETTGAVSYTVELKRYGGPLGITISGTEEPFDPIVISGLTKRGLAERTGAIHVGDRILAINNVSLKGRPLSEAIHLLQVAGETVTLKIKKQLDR

IL16_3, Q14005 = target: IL16_3, Q14005
Sequence of IL16_3, Q14005 (Q14005 1107-1207): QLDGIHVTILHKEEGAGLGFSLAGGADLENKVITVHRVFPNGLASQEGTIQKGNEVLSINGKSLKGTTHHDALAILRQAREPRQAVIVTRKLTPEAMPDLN

Inadl_1, Q8NI35 = target: Inadl_1, Q8NI35
Sequence of Inadl_1, Q8NI35 (Q8NI35 113-229): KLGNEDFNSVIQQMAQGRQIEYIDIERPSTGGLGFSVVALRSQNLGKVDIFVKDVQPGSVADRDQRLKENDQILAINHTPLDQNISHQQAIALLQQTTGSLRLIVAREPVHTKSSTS

Inadl_8, Q8NI35 = target: Inadl_8, Q8NI35
Sequence of Inadl_8, Q8NI35 (Q8NI35 1425-1530): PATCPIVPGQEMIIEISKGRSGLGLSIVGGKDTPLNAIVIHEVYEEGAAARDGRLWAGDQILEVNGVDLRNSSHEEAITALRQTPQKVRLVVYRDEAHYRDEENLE

LDB3, O75112 = target: LDB3, O75112
Sequence of LDB3, O75112 (O75112 1-94): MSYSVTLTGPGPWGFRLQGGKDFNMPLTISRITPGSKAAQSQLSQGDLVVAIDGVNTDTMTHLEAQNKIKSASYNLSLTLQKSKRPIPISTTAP

LIMK2, P53671 = target: LIMK2, P53671
Sequence of LIMK2, P53671 (P53671 143-248): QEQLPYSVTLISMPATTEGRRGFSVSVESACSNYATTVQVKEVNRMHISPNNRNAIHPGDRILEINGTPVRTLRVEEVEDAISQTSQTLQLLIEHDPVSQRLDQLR

LNX2_2, Q8N448 = target: T5, LNX2_2, Q8N448
MAGI2_4, Q86UL8 = target: MAGI2_4, Q86UL8
Sequence of MAGI2_4, Q86UL8 (Q86UL8 772-865): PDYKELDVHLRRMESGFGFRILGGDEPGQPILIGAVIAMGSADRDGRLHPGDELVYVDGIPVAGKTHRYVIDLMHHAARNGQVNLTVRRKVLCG

MAGI2_6, Q86UL8 = target: MAGI2_6, Q86UL8
Sequence of MAGI2_6, Q86UL8 (Q86UL8 1141-1229): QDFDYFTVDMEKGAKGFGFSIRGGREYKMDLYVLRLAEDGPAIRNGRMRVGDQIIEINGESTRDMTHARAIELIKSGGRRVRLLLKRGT

MAGI3_2, Q5TCQ9 = target: MAGI3_2, Q5TCQ9
Sequence of MAGI3_2, Q5TCQ9 (Q5TCQ9 398-503): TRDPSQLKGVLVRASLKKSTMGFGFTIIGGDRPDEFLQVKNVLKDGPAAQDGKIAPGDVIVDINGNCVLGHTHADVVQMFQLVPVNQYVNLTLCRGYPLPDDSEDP

MPDZ_12, O75970 = target: T6, MPDZ_12, O75970
MPP2, Q14168 = target: T7, MPP2, Q14168
MPP6, Q9NZW5 = target: T8, MPP6, Q9NZW5
PDZD7_3, Q9H5P4 = target: T9, PDZD7_3, Q9H5P4
PTPN3, P26045 = target: PTPN3, P26045
Sequence of PTPN3, P26045 (P26045 505-587): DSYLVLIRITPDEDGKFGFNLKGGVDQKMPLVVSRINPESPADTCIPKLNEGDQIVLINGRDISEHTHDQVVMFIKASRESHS

SCRIB_3, Q14160 = target: SCRIB_3, Q14160
Sequence of SCRIB_3, Q14160 (Q14160 999-1103): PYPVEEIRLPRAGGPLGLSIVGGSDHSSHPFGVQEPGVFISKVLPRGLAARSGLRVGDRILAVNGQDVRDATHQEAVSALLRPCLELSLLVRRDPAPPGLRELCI

SHANK1, Q9Y566 = target: T10, SHANK1, Q9Y566
TJP1_3, Q07157 = target: TJP1_3, Q07157
Sequence of TJP1_3, Q07157 (Q07157 416-512): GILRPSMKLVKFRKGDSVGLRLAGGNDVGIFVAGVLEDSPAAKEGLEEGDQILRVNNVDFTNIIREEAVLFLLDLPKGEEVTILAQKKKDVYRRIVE

pKd (APBA3_1, O96018) | pKd (CASK, O14936) | pKd (DFNB31_1, Q9P202) | pKd (DFNB31_3, Q9P202) | pKd (DLG3_3, Q92796) | pKd (DLG4_1, P78352) | pKd (DLG4_2, P78352) | pKd (FRMPD3, Q5JV73) | pKd (GRIP2_3, Q9C0E4) | pKd (GRIP2_4, Q9C0E4) | pKd (GRIP2_5, Q9C0E4) | pKd (GRIP2_6, Q9C0E4) | pKd (IL16_3, Q14005) | pKd (Inadl_1, Q8NI35) | pKd (Inadl_8, Q8NI35) | pKd (LDB3, O75112) | pKd (LIMK2, P53671) | pKd (LNX2_2, Q8N448) | pKd (MAGI2_4, Q86UL8) | pKd (MAGI2_6, Q86UL8) | other results | Binder
below the threshold | below the threshold | 3.65 | below the threshold | below the threshold | 3.82 | 4.04 | below the threshold | below the threshold | below the threshold | below the threshold | below the threshold | below the threshold | below the threshold | below the threshold | below the threshold | below the threshold | below the threshold | below the threshold | below the threshold | pKd (MAGI3_2, Q5TCQ9): 4.47; pKd (MPDZ_12, O75970): below the threshold; pKd (MPP2, Q14168): below the threshold; pKd (MPP6, Q9NZW5): below the threshold; pKd (PDZD7_3, Q9H5P4): 4.87; pKd (PTPN3, P26045): 3.85; pKd (SCRIB_3, Q14160): 4.11; pKd (SHANK1, Q9Y566): 4.91; pKd (TJP1_3, Q07157): below the threshold | WAKEKQHTRL [SLC17A1, Q14916]
below the threshold | below the threshold | below the threshold | below the threshold | below the threshold | below the threshold | below the threshold | below the threshold | below the threshold | below the threshold | below the threshold | 3.58 | below the threshold | 4.09 | 3.5 | below the threshold | below the threshold | 5.28 | 3.82 | 3.67 | pKd (MAGI3_2, Q5TCQ9): 4.03; pKd (MPDZ_12, O75970): 3.61; pKd (MPP2, Q14168): below the threshold; pKd (MPP6, Q9NZW5): 3.83; pKd (PDZD7_3, Q9H5P4): below the threshold; pKd (PTPN3, P26045): 4.1; pKd (SCRIB_3, Q14160): 3.58; pKd (SHANK1, Q9Y566): below the threshold; pKd (TJP1_3, Q07157): 3.95 | PALKNGQYWV [CSPG4, Q6UVK1]
below the threshold | below the threshold | below the threshold | below the threshold | below the threshold | below the threshold | 4.01 | below the threshold | below the threshold | below the threshold | below the threshold | below the threshold | below the threshold | below the threshold | 3.62 | below the threshold | below the threshold | 4.26 | below the threshold | below the threshold | pKd (MAGI3_2, Q5TCQ9): below the threshold; pKd (MPDZ_12, O75970): below the threshold; pKd (MPP2, Q14168): below the threshold; pKd (MPP6, Q9NZW5): below the threshold; pKd (PDZD7_3, Q9H5P4): 3.68; pKd (PTPN3, P26045): below the threshold; pKd (SCRIB_3, Q14160): below the threshold; pKd (SHANK1, Q9Y566): below the threshold; pKd (TJP1_3, Q07157): below the threshold | GVHSNDHSVV [LPAR1, Q92633]
below the threshold | below the threshold | below the threshold | 4.15 | below the threshold | 3.65 | 4.23 | below the threshold | below the threshold | below the threshold | below the threshold | below the threshold | below the threshold | below the threshold | below the threshold | below the threshold | below the threshold | 4.04 | 4.34 | below the threshold | pKd (MAGI3_2, Q5TCQ9): 4.62; pKd (MPDZ_12, O75970): 3.55; pKd (MPP2, Q14168): below the threshold; pKd (MPP6, Q9NZW5): 3.54; pKd (PDZD7_3, Q9H5P4): 4.95; pKd (PTPN3, P26045): 4.32; pKd (SCRIB_3, Q14160): 3.52; pKd (SHANK1, Q9Y566): below the threshold; pKd (TJP1_3, Q07157): below the threshold | YAEKRMLTEV [KCNA6, P17658]
